US10800813 (Bicycle, dated 2020)
Read-outs that look alike come from different tables or passages of the source. Numbered stars: 1 amine (or outer) side, 2 acyl side, 3 side chain; on linkers, the order of the positions; unused ones are H or OH. Bridge positions count the residues as written; N and C are the ends. Square brackets hold non-standard residues; d marks the D form. Ends that are not written are not given here. Phe(4-guanidino) = N=C(N)Nc1ccc(C[C@H](N)C(=O)O)cc1; TBMB = c1c(C[*:1])cc(C[*:3])cc1C[*:2]; NMeR = CN[C@@H](CCCNC(=N)N)C(=O)O; hArg = N=C(N)NCCCC[C@H](N)C(=O)O

Key:
[1] = target: T1, Monkey plasma Kallikrein (monkey (Macaca mulatta), UniProt A0A1D5Q7U7 391-638); experiment: enzyme inhibition assay
T1 construct: domain: catalytic domain; also called mPK

[2] = target: T2, Rat plasma Kallikrein (rat, UniProt P14272 391-638, limits assumed); experiment: enzyme inhibition assay
T2 construct: domain: catalytic domain; also called rPK; rat PK

[3] = target: T3, Human factor XIa (human, UniProt P03951 19-625); experiment: enzyme inhibition assay
T3 construct: also called hfXIa

[4] = target: T4, human plasma Kallikrein (human, UniProt P03952 20-638, limits assumed); experiment: enzyme inhibition assay
T4 construct: also called hPK; human PK

[5] = target: T4, human plasma Kallikrein; experiment: enzyme inhibition assay; remark: listed apart in the source
[6] = target: Human plasmin (human, UniProt P00747 97-810); experiment: enzyme inhibition assay
[7] = target: T4, human plasma Kallikrein; experiment: enzyme inhibition assay; remark: listed apart in the source
[8] = target: T4, human plasma Kallikrein; experiment: enzyme inhibition assay; remark: listed apart in the source
[9] = target: T4, human plasma Kallikrein; experiment: enzyme inhibition assay; remark: listed apart in the source
[10] = target: T4, human plasma Kallikrein; experiment: enzyme inhibition assay; remark: listed apart in the source
[11] = target: T4, human plasma Kallikrein; experiment: enzyme inhibition assay; remark: listed apart in the source
[12] = target: T4, human plasma Kallikrein; experiment: enzyme inhibition assay; remark: listed apart in the source
[13] = target: T4, human plasma Kallikrein; experiment: enzyme inhibition assay; remark: listed apart in the source
[14] = target: T4, human plasma Kallikrein; experiment: enzyme inhibition assay; remark: listed apart in the source
[15] = target: T4, human plasma Kallikrein; experiment: enzyme inhibition assay; remark: listed apart in the source
[16] = target: T4, human plasma Kallikrein; experiment: enzyme inhibition assay; remark: listed apart in the source
[17] = target: T4, human plasma Kallikrein; experiment: enzyme inhibition assay; remark: listed apart in the source
[18] = target: T2, Rat plasma Kallikrein; experiment: enzyme inhibition assay; values relative, not absolute
[19] = target: T4, human plasma Kallikrein; experiment: enzyme inhibition assay; remark: listed apart in the source
[20] = target: T2, Rat plasma Kallikrein; experiment: enzyme inhibition assay; values relative, not absolute; remark: listed apart in the source
[21] = target: T4, human plasma Kallikrein; experiment: enzyme inhibition assay; remark: listed apart in the source

T1 sequence (A0A1D5Q7U7 entry or part of it): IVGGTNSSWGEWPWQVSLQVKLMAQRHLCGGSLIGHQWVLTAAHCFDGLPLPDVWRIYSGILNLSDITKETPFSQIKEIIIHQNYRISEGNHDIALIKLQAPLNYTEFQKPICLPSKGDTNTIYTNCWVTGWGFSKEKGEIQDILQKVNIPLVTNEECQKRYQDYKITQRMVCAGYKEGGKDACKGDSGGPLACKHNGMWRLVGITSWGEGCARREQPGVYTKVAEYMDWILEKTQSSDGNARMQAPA
T4 sequence (P03952 20-638 limits assumed): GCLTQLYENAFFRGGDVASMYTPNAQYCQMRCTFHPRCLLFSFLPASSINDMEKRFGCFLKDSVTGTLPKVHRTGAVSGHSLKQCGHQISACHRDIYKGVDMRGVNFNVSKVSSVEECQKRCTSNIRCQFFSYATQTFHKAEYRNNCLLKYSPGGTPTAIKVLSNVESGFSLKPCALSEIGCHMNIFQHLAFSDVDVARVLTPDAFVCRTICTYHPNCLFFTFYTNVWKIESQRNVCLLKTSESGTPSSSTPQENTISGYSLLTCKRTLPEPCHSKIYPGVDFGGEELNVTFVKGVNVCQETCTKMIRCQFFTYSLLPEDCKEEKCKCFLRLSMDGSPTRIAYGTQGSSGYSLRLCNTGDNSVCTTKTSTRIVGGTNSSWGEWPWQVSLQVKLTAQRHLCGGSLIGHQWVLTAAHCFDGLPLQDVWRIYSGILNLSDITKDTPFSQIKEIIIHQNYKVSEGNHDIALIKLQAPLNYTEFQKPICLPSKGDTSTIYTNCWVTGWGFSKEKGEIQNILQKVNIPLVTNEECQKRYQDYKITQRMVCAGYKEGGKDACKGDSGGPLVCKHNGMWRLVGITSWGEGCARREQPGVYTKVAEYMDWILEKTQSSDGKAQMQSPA
T2 sequence (P14272 391-638 limits assumed): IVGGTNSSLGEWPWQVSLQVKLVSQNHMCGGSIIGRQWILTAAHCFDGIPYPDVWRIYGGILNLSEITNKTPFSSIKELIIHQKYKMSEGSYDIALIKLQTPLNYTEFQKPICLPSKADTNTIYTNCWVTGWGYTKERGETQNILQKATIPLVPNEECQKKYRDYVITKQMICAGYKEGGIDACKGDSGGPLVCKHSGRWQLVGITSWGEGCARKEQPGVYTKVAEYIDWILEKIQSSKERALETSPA
Sequence of Human plasmin (P00747 97-810 limits assumed): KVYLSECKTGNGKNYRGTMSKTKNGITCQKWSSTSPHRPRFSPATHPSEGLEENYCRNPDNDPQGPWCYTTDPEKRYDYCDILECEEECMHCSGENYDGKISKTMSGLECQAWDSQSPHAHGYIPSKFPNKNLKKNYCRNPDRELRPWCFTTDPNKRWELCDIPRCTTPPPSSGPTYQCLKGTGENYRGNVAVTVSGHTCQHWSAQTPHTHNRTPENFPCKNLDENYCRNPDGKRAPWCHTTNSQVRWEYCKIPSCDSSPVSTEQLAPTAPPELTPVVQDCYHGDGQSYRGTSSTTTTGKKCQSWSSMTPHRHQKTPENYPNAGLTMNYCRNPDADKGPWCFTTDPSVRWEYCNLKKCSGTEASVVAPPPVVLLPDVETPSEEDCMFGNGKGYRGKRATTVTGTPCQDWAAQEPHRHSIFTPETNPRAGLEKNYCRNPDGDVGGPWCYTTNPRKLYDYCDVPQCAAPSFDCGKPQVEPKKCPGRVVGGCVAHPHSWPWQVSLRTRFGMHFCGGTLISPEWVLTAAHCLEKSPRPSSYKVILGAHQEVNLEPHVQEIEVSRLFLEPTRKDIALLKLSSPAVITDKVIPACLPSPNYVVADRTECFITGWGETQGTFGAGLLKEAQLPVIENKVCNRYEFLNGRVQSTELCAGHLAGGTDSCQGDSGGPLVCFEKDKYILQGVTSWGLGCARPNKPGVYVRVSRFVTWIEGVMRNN

**Q.** With ACFKACRVNCA (linker 2-6-10 via TBMB, also called PK117) [3B3] as the binder, how does the Ki [1] read?
**A.** 11 nM

**Q.** What about the Ki [2] of the same binder?
**A.** 24 nM

**Q.** What about the Ki [3] of the same binder?
**A.** 57 nM

**Q.** ACFKHCRVACA (linker 2-6-10 via TBMB, also called PK123) [3B8] was tested. Which Ki [4] did it give?
**A.** 7 nM

**Q.** And the Ki [1]?
**A.** 9 nM

**Q.** And the Ki [2]?
**A.** 12 nM

**Q.** What about the Ki [3] of the same binder?
**A.** 52 nM

**Q.** And the Ki [5]?
**A.** 0.95 nM

**Q.** With ACTYPYKCLHQNLCA (linker 2-8-14 via TBMB, also called PK112) [2A10] as the binder, how does the Ki [4] read?
**A.** 18 nM

**Q.** What about the Ki [1] of the same binder?
**A.** 23 nM

**Q.** What about the Ki [2] of the same binder?
**A.** 66 nM

**Q.** And the Ki [6]?
**A.** 30000 nM

**Q.** What about the Ki [7] of the same binder?
**A.** 4.98 nM

**Q.** With H-ACSDRFRNCPADEALCG-NH2 (linker 2-9-16 via TBMB, 6x6 bicyclic peptide) [PK15] as the binder, how does the Ki [4] read?
**A.** 3 nM

**Q.** And the Ki [1]?
**A.** 4 nM

**Q.** What about the Ki [2] of the same binder?
**A.** 941 nM

**Q.** And the Ki [3]?
**A.** 75000 nM

B1: Ac-06-34-18(TMB)-NH2 (peptide)
peptide: Ac-CSWPARCLHQDLC-NH2
modifications: linker 1-7-13 via TBMB
SMILES: CC(=O)N[C@H]1CSCc2cc3cc(c2)CSC[C@H](NC(=O)[C@H](CCCNC(=N)N)NC(=O)[C@H](C)NC(=O)[C@@H]2CCCN2C(=O)[C@H](Cc2c[nH]c4ccccc24)NC(=O)[C@H](CO)NC1=O)C(=O)N[C@@H](CC(C)C)C(=O)N[C@@H](Cc1c[nH]cn1)C(=O)N[C@@H](CCC(N)=O)C(=O)N[C@@H](CC(=O)O)C(=O)N[C@@H](CC(C)C)C(=O)N[C@H](C(N)=O)CSC3
notes: also called Ac-(06-34-18) wildtype; Ac-(06-34-18) WPAR
**Q.** With B1 as the binder, how does the Ki [8] read?
**A.** 0.17 nM

**Q.** And the Ki [9]?
**A.** 0.17 nM

**Q.** And the Ki [10]?
**A.** 0.17 nM

**Q.** What about the Ki [11] of the same binder?
**A.** 0.17 nM

**Q.** And the Ki [12]?
**A.** 0.17 nM

**Q.** What about the Ki [13] of the same binder?
**A.** 0.17 nM

**Q.** What about the Ki [14] of the same binder?
**A.** 0.17 nM

**Q.** And the Ki [15]?
**A.** 0.17 nM

**Q.** And the Ki [16]?
**A.** 0.17 nM

**Q.** What about the Ki [17] of the same binder?
**A.** 0.17 nM

**Q.** What about the IC50 [18] of the same binder?
**A.** 1.7 nM

B2: Ac-(06-34-18) Phe2 Tyr4 HomoArg5 (peptide)
peptide: Ac-CSFPY[hArg]CLHQDLC-NH2
modifications: linker 1-7-13 via TBMB
SMILES: CC(=O)N[C@H]1CSCc2cc3cc(c2)CSC[C@H](NC(=O)[C@H](CCCCNC(=N)N)NC(=O)[C@H](Cc2ccc(O)cc2)NC(=O)[C@@H]2CCCN2C(=O)[C@H](Cc2ccccc2)NC(=O)[C@H](CO)NC1=O)C(=O)N[C@@H](CC(C)C)C(=O)N[C@@H](Cc1c[nH]cn1)C(=O)N[C@@H](CCC(N)=O)C(=O)N[C@@H](CC(=O)O)C(=O)N[C@@H](CC(C)C)C(=O)N[C@H](C(N)=O)CSC3
**Q.** For B2, which Ki [19] is on record?
**A.** 0.77 nM

**Q.** What about the IC50 [20] of the same binder?
**A.** 19.7 nM

B3: Ac-06-34-18(TMB)-NH2 Phe2Tyr4 (peptide)
peptide: Ac-CSFPYRCLHQDLC-NH2
modifications: linker 1-7-13 via TBMB
SMILES: CC(=O)N[C@H]1CSCc2cc3cc(c2)CSC[C@H](NC(=O)[C@H](CCCNC(=N)N)NC(=O)[C@H](Cc2ccc(O)cc2)NC(=O)[C@@H]2CCCN2C(=O)[C@H](Cc2ccccc2)NC(=O)[C@H](CO)NC1=O)C(=O)N[C@@H](CC(C)C)C(=O)N[C@@H](Cc1c[nH]cn1)C(=O)N[C@@H](CCC(N)=O)C(=O)N[C@@H](CC(=O)O)C(=O)N[C@@H](CC(C)C)C(=O)N[C@H](C(N)=O)CSC3
notes: also called Ac-(06-34-18) FPYR; Ac-(06-34-18) Phe2 Tyr4
**Q.** Which results are given for B3?
**A.** Ki [17]: 0.46 nM; Ki [21]: 0.46 nM; Ki [19]: 0.46 nM; IC50 [20]: 13.8 nM

B4: Ac-(06-34-18) Phe2 Tyr4 4GuanPhe5 (peptide)
peptide: Ac-CSFPY[Phe(4-guanidino)]CLHQDLC-NH2
modifications: linker 1-7-13 via TBMB
SMILES: CC(=O)N[C@H]1CSCc2cc3cc(c2)CSC[C@H](NC(=O)[C@H](Cc2ccc(NC(=N)N)cc2)NC(=O)[C@H](Cc2ccc(O)cc2)NC(=O)[C@@H]2CCCN2C(=O)[C@H](Cc2ccccc2)NC(=O)[C@H](CO)NC1=O)C(=O)N[C@@H](CC(C)C)C(=O)N[C@@H](Cc1c[nH]cn1)C(=O)N[C@@H](CCC(N)=O)C(=O)N[C@@H](CC(=O)O)C(=O)N[C@@H](CC(C)C)C(=O)N[C@H](C(N)=O)CSC3
**Q.** Which results are given for B4?
**A.** Ki [19]: 0.4 nM; IC50 [20]: 2.5 nM

B5: Ac-(06-34-18) Phe2 Tyr4 NMeArg5 (peptide)
peptide: Ac-CSFPY[NMeR]CLHQDLC-NH2
modifications: linker 1-7-13 via TBMB
SMILES: CC(=O)N[C@H]1CSCc2cc3cc(c2)CSC[C@H](NC(=O)[C@H](CCCNC(=N)N)N(C)C(=O)[C@H](Cc2ccc(O)cc2)NC(=O)[C@@H]2CCCN2C(=O)[C@H](Cc2ccccc2)NC(=O)[C@H](CO)NC1=O)C(=O)N[C@@H](CC(C)C)C(=O)N[C@@H](Cc1c[nH]cn1)C(=O)N[C@@H](CCC(N)=O)C(=O)N[C@@H](CC(=O)O)C(=O)N[C@@H](CC(C)C)C(=O)N[C@H](C(N)=O)CSC3
**Q.** Which results are given for B5?
**A.** Ki [19]: 3.56 nM; IC50 [20]: 60.2 nM
